Experimental data as given in PMC8855868.

Biological target: MeCP2 (human, UniProt P51608 1-486)
Assay: MST

MeCP2, sequence (P51608 whole entry): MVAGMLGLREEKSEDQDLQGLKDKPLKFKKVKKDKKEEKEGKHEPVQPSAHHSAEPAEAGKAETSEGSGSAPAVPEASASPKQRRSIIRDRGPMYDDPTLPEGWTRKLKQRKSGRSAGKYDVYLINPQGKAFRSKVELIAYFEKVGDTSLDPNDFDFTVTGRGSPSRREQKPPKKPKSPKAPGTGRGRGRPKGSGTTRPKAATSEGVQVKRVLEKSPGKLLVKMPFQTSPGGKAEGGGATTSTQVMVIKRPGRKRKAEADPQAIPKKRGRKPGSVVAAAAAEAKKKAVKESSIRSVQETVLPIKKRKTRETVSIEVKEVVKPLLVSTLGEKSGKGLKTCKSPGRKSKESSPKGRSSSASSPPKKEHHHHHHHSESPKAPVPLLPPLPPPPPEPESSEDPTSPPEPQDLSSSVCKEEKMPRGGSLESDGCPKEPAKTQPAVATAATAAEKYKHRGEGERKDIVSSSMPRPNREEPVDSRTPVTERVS

B1: 20 bp mC (dsDNA)
DNA 1: ACTACCATCCGGACCAGAAG
DNA 2: CTTCTGGTCCGGATGGTAGT
modifications: 5mC at position 10 of strand 1 and position 10 of strand 2 (printed as X)
B1: binds.
